Substrate in this series: C[N+](C)(C)CC(O)CC(=O)[O-]
The series is described as follows: TP_TRANSPORTER: uptake in membrane vesicle from OCTN2-expressing HEK 293 cell. In kind it is functional, cell membranes, HEK293.

B1: Organic cation/carnitine transporter 2 (Homo sapiens) (protein)
chain: MRDYDEVTAFLGEWGPFQRLIFFLLSASIIPNGFTGLSSVFLIATPEHRCRVPDAANLSSAWRNHTVPLRLRDGREVPHSCRRYRLATIANFSALGLEPGRDVDLGQLEQESCLDGWEFSQDVYLSTIVTEWNLVCEDDWKAPLTISLFFVGVLLGSFISGQLSDRFGRKNVLFVTMGMQTGFSFLQIFSKNFEMFVVLFVLVGMGQISNYVAAFVLGTEILGKSVRIIFSTLGVCIFYAFGYMVLPLFAYFIRDWRMLLVALTMPGVLCVALWWFIPESPRWLISQGRFEEAEVIIRKAAKANGIVVPSTIFDPSELQDLSSKKQQSHNILDLLRTWNIRMVTIMSIMLWMTISVGYFGLSLDTPNLHGDIFVNCFLSAMVEVPAYVLAWLLLQYLPRRYSMATALFLGGSVLLFMQLVPPDLYYLATVLVMVGKFGVTAAFSMVYVYTAELYPTVVRNMGVGVSSTASRLGSILSPYFVYLGAYDRFLPYILMGSLTILTAILTLFLPESFGTPLPDTIDQMLRVKGMKHRKTPSHTRMLKDGQERPTILKSTAF
On to B1, for which the Km was 2.66 µM.
